Measured values from the supplement of paper PMC11316812.
± gives the standard deviation of the averaged measurements.

Experiments:
[1] = tested on: hTERT-HMEC; assay: percentage of EdU-negative (G0-arrested) nuclei per well, 72 h; higher = more G0 arrest; details: reference: sequence is the full UniProt precursor, the tested protein was the secreted form or ectodomain
[2] = tested on: MCF7; assay: as above; details: reference: sequence is the full UniProt precursor, the tested protein was the secreted form or ectodomain
[3] = protein concentration 0.0225 µM
[4] = protein concentration 0.02425 µM
[5] = protein concentration 0.2425 µM
[6] = protein concentration 0.03125 µM
[7] = protein concentration 0.3125 µM
[8] = protein concentration 0.0165 µM
[9] = protein concentration 0.023405 µM
[10] = protein concentration 0.23405 µM
[11] = protein concentration 0.0257143 µM
[12] = protein concentration 0.257143 µM
[13] = protein concentration 0.016015 µM
[14] = protein concentration 0.16015 µM
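Further: secreted proteins added to cultured cells, EdU pulse at the end, nuclei found by Hoechst imaging, EdU status from nuclear versus surrounding ring intensity ratio, PBS as neutral control.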

MKTGHFEIVTMLLATMILVDIFQVKAEVLDMADNAFDDEYLKCTDRMEIKYVPQLLKEEKASHQQLDTVWENAKAKWAARKTQIFLPMNFKDNHGIALMAYISEAQEQTPFYHLFSEAVKMAGQSREDYIYGFQFKAFHFYLTRALQLLRKPCEASSKTVVYRTSQGTSFTFGGLNQARFGHFTLAYSAKPQAANDQLTVLSIYTCLGVDIENFLDKESERITLIPLNEVFQVSQEGAGNNLILQSINKTCSHYECAFLGGLKTENCIENLEYFQPIYVYNPGEKNQKLEDHSEKNWKLEDHGEKNQKLEDHGVKILEPTQIPGMKIPEPFPLPEDKSQGNINNPTPGPVPVPGPKSHPSASSGKLLLPQFGMVIILISVSAINLFVAL
percentage of EdU-negative [1, 3]: 4.51 ± 0.24%
percentage of EdU-negative ([1]; protein concentration 0.225 µM): 5.22 ± 0.84%
percentage of EdU-negative [2, 3]: 24.99 ± 0.071%
percentage of EdU-negative ([2]; protein concentration 0.225 µM): 27.3 ± 1.4%

MKTLAGLVLGLVIFDAAVTAPTLESINYDSETYDATLEDLDNLYNYENIPVDKVEIEIATVMPSGNRELLTPPPQPEKAQEEEEEEESTPRLIDGSSPQEPEFTGVLGPHTNEDFPTCLLCTCISTTVYCDDHELDAIPPLPKNTAYFYSRFNRIKKINKNDFASLSDLKRIDLTSNLISEIDEDAFRKLPQLRELVLRDNKIRQLPELPTTLTFIDISNNRLGRKGIKQEAFKDMYDLHHLYLTDNNLDHIPLPLPENLRALHLQNNNILEMHEDTFCNVKNLTYIRKALEDIRLDGNPINLSKTPQAYMCLPRLPVGSLV
percentage of EdU-negative [1, 4]: 4.4 ± 0.046%
percentage of EdU-negative [1, 5]: 6.32 ± 0.2%
percentage of EdU-negative [2, 4]: 23.5 ± 1%
percentage of EdU-negative [2, 5]: 26.2 ± 2.6%

MKTLFLGVTLGLAAALSFTLEEEDITGTWYVKAMVVDKDFPEDRRPRKVSPVKVTALGGGNLEATFTFMREDRCIQKKILMRKTEEPGKFSAYGGRKLIYLQELPGTDDYVFYCKDQRRGGLRYMGKLVGRNPNTNLEALEEFKKLVQHKGLSEEDIFMPLQTGSCVLEH [Q9NY56]
percentage of EdU-negative [1, 6]: 5 ± 0.88%
percentage of EdU-negative [1, 7]: 6.83 ± 0.95%
percentage of EdU-negative [2, 6]: 25.1 ± 0.74%
percentage of EdU-negative [2, 7]: 25.7 ± 0.44%

MKTLLLLAVIMIFGLLQAHGNLVNFHRMIKLTTGKEAALSYGFYGCHCGVGGRGSPKDATDRCCVTHDCCYKRLEKRGCGTKFLSYKFSNSGSRITCAKQDSCRSQLCECDKAAATCFARNKTTYNKKYQYYSNKHCRGSTPRC
percentage of EdU-negative [1, 8]: 4.75 ± 0.11%
percentage of EdU-negative ([1]; protein concentration 0.165 µM): 6.7 ± 0.9%
percentage of EdU-negative [2, 8]: 25.3 ± 2.7%
percentage of EdU-negative ([2]; protein concentration 0.165 µM): 29.2 ± 0.99%

MKTLQFFFLFCCWKAICCNSCELTNITIAIEKEECRFCISINTTWCAGYCYTRDLVYKDPARPKIQKTCTFKELVYETVRVPGCAHHADSLYTYPVATQCHCGKCDSDSTDCTVRGLGPSYCSFGEMKE
percentage of EdU-negative [1, 6]: 5.26 ± 0.36%
percentage of EdU-negative [1, 7]: 4.61 ± 0.34%
percentage of EdU-negative [2, 6]: 25.3 ± 0.9%
percentage of EdU-negative [2, 7]: 26.6 ± 1.5%

MKTPWKVLLGLLGAAALVTIITVPVVLLNKGTDDATADSRKTYTLTDYLKNTYRLKLYSLRWISDHEYLYKQENNILVFNAEYGNSSVFLENSTFDEFGHSINDYSISPDGQFILLEYNYVKQWRHSYTASYDIYDLNKRQLITEERIPNNTQWVTWSPVGHKLAYVWNNDIYVKIEPNLPSYRITWTGKEDIIYNGITDWVYEEEVFSAYSALWWSPNGTFLAYAQFNDTEVPLIEYSFYSDESLQYPKTVRVPYPKAGAVNPTVKFFVVNTDSLSSVTNATSIQITAPASMLIGDHYLCDVTWATQERISLQWLRRIQNYSVMDICDYDESSGRWNCLVARQHIEMSTTGWVGRFRPSEPHFTLDGNSFYKIISNEEGYRHICYFQIDKKDCTFITKGTWEVIGIEALTSDYLYYISNEYKGMPGGRNLYKIQLSDYTKVTCLSCELNPERCQYYSVSFSKEAKYYQLRCSGPGLPLYTLHSSVNDKGLRVLEDNSALDKMLQNVQMPSKKLDFIILNETKFWYQMILPPHFDKSKKYPLLLDVYAGPCSQKADTVFRLNWATYLASTENIIVASFDGRGSGYQGDKIMHAINRRLGTFEVEDQIEAARQFSKMGFVDNKRIAIWGWSYGGYVTSMVLGSGSGVFKCGIAVAPVSRWEYYDSVYTERYMGLPTPEDNLDHYRNSTVMSRAENFKQVEYLLIHGTADDNVHFQQSAQISKALVDVGVDFQAMWYTDEDHGIASSTAHQHIYTHMSHFIKQCFSLP
percentage of EdU-negative ([1]; protein concentration 0.009 µM): 4.55 ± 0.2%
percentage of EdU-negative [1, 9]: 5.17 ± 1.7%
percentage of EdU-negative ([1]; protein concentration 0.09 µM): 6.07 ± 0.24%
percentage of EdU-negative [1, 10]: 6.28 ± 0.073%
percentage of EdU-negative ([2]; protein concentration 0.009 µM): 24.2 ± 0.48%
percentage of EdU-negative [2, 9]: 24.2 ± 0.77%
percentage of EdU-negative ([2]; protein concentration 0.09 µM): 26.5 ± 0.49%
percentage of EdU-negative [2, 10]: 29.2 ± 1.1%

MKVLLCDLLLLSLFSSVFSSCQRDCLTCQEKLHPALDSFDLEVCILECEEKVFPSPLWTPCTKVMARSSWQLSPAAPEHVAAALYQPRASEMQHLRRMPRVRSLFQEQEEPEPGMEEAGEMEQKQLQKRFGGFTGARKSARKLANQKRFSEFMRQYLVLSMQSSQRRRTLHQNGNV
percentage of EdU-negative [1, 11]: 4.77 ± 0.15%
percentage of EdU-negative [1, 12]: 5.6 ± 0.068%
percentage of EdU-negative [2, 11]: 24.9 ± 0.7%
percentage of EdU-negative [2, 12]: 27.5 ± 0.28%

MKVLLRLICFIALLISSLEADKCKEREEKIILVSSANEIDVRPCPLNPNEHKGTITWYKDDSKTPVSTEQASRIHQHKEKLWFVPAKVEDSGHYYCVVRNSSYCLRIKISAKFVENEPNLCYNAQAIFKQKLPVAGDGGLVCPYMEFFKNENNELPKLQWYKDCKPLLLDNIHFSGVKDRLIVMNVAEKHRGNYTCHASYTYLGKQYPITRVIEFITLEENKPTRPVIVSPANETMEVDLGSQIQLICNVTGQLSDIAYWKWNGSVIDEDDPVLGEDYYSVENPANKRRSTLITVLNISEIESRFYKHPFTCFAKNTHGIDAAYIQLIYPVTNFQKHMIGICVTLTVIIVCSVFIYKIFKIDIVLWYRDSCYDFLPIKASDGKTYDAYILYPKTVGEGSTSDCDIFVFKVLPEVLEKQCGYKLFIYGRDDYVGEDIVEVINENVKKSRRLIIILVRETSGFSWLGGSSEEQIAMYNALVQDGIKVVLLELEKIQDYEKMPESIKFIKQKHGAIRWSGDFTQGPQSAKTRFWKNVRYHMPVQRRSPSSKHQLLSPATKEKLQREAHVPLG
percentage of EdU-negative [1, 13]: 4.76 ± 0.26%
percentage of EdU-negative [1, 14]: 5.92 ± 0.43%
percentage of EdU-negative [2, 13]: 25.8 ± 1.6%
percentage of EdU-negative [2, 14]: 26.2 ± 0.51%
